Data published in US20210388087A1 (Chugai, published 2021).
Changes are numbered by the printed parent chain.

B1: GLS3000 S26D (antibody, name in Kabat numbering, V domains shown)
VH: QVQLVESGGGVVQPGRSLRLSCAASGFTFSNAWMHWVRQAPGKGLEWVAQIKAKSNNYATYYAESVKGRFTISRDDSKNSLYLQMNSLKTEDTAVYYCRYVHYGAYYGVDAWGQGTTVTVSS
VL: DIVMTQSPLSLPVTPGEPASISCRSDQSLVHSNRNTYLHWYQQKPGQAPRLLIYKVSNRFSGVPDRFSGSGSGTDFTLKISRVEAEDVGVYYCGQGTQVPYTFGQGTKLEIK
notes: one-arm IgG as m2
B2: GLS3000 S27aI (antibody, name in Kabat numbering, V domains shown)
VH: B1 VH
VL: B1 VL with D26S, S28I
notes: one-arm IgG as m2
B3: GLS3000 S27eF (antibody, name in Kabat numbering, V domains shown)
VH: B1 VH
VL: B1 VL with D26S, S32F
notes: one-arm IgG as m2
B4: GLS3000 S56I (antibody, name in Kabat numbering, V domains shown)
VH: B1 VH
VL: B1 VL with D26S, S61I
notes: one-arm IgG as m2
B5: GLS3000 S27eW (antibody, name in Kabat numbering, V domains shown)
VH: B1 VH
VL: B1 VL with D26S, S32W
notes: one-arm IgG as m2
B6: GLS3000 S52Y (antibody, name in Kabat numbering, V domains shown)
VH: B1 VH
VL: B1 VL with D26S, S57Y
notes: one-arm IgG as m2
B7: GLS3000 S52Q (antibody, name in Kabat numbering, V domains shown)
VH: B1 VH
VL: B1 VL with D26S, S57Q
notes: one-arm IgG as m2
B8: GLS3000 S27aD (antibody, name in Kabat numbering, V domains shown)
VH: B1 VH
VL: B1 VL with D26S, S28D
notes: one-arm IgG as m2
B9: GLS3000 S26E (antibody, name in Kabat numbering, V domains shown)
VH: B1 VH
VL: B1 VL with D26E
notes: one-arm IgG as m2
B10: GLS3000 S56E (antibody, name in Kabat numbering, V domains shown)
VH: B1 VH
VL: B1 VL with D26S, S61E
notes: one-arm IgG as m2
B11: GLS3000 S27eM (antibody, name in Kabat numbering, V domains shown)
VH: B1 VH
VL: B1 VL with D26S, S32M
notes: one-arm IgG as m2
B12: GLS3000 S27eQ (antibody, name in Kabat numbering, V domains shown)
VH: B1 VH
VL: B1 VL with D26S, S32Q
notes: one-arm IgG as m2
B13: GLS3000 S27eE (antibody, name in Kabat numbering, V domains shown)
VH: B1 VH
VL: B1 VL with D26S, S32E
notes: one-arm IgG as m2
B14: GLS3000 S27aN (antibody, name in Kabat numbering, V domains shown)
VH: B1 VH
VL: B1 VL with D26S, S28N
notes: one-arm IgG as m2
B15: GLS3000 S27eN (antibody, name in Kabat numbering, V domains shown)
VH: B1 VH
VL: B1 VL with D26S, S32N
notes: one-arm IgG as m2
B16: GLS3000 S27eA (antibody, name in Kabat numbering, V domains shown)
VH: B1 VH
VL: B1 VL with D26S, S32A
notes: one-arm IgG as m2
B17: GLS3000 S27eL (antibody, name in Kabat numbering, V domains shown)
VH: B1 VH
VL: B1 VL with D26S, S32L
notes: one-arm IgG as m2
B18: GLS3000 S52A (antibody, name in Kabat numbering, V domains shown)
VH: B1 VH
VL: B1 VL with D26S, S57A
notes: one-arm IgG as m2
B19: GLS3000 S27eT (antibody, name in Kabat numbering, V domains shown)
VH: B1 VH
VL: B1 VL with D26S, S32T
notes: one-arm IgG as m2
B20: GLS3000 S27eR (antibody, name in Kabat numbering, V domains shown)
VH: B1 VH
VL: B1 VL with D26S, S32R
notes: one-arm IgG as m2
B21: GLS3000 S56K (antibody, name in Kabat numbering, V domains shown)
VH: B1 VH
VL: B1 VL with D26S, S61K
notes: one-arm IgG as m2
B22: GLS3000 S56G (antibody, name in Kabat numbering, V domains shown)
VH: B1 VH
VL: B1 VL with D26S, S61G
notes: one-arm IgG as m2
B23: GLS3000 S27eP (antibody, name in Kabat numbering, V domains shown)
VH: B1 VH
VL: B1 VL with D26S, S32P
notes: one-arm IgG as m2
B24: GLS3000 S27aG (antibody, name in Kabat numbering, V domains shown)
VH: B1 VH
VL: B1 VL with D26S, S28G
notes: one-arm IgG as m2
B25: GLS3000 S56L (antibody, name in Kabat numbering, V domains shown)
VH: B1 VH
VL: B1 VL with D26S, S61L
notes: one-arm IgG as m2
B26: GLS3000 S27eG (antibody, name in Kabat numbering, V domains shown)
VH: B1 VH
VL: B1 VL with D26S, S32G
notes: one-arm IgG as m2
B27: GLS3000 S27eY (antibody, name in Kabat numbering, V domains shown)
VH: B1 VH
VL: B1 VL with D26S, S32Y
notes: one-arm IgG as m2
B28: GLS3000 S27eV (antibody, name in Kabat numbering, V domains shown)
VH: B1 VH
VL: B1 VL with D26S, S32V
notes: one-arm IgG as m2
B29: GLS3000 S26P (antibody, name in Kabat numbering, V domains shown)
VH: B1 VH
VL: B1 VL with D26P
notes: one-arm IgG as m2
B30: GLS3000 S27eK (antibody, name in Kabat numbering, V domains shown)
VH: B1 VH
VL: B1 VL with D26S, S32K
notes: one-arm IgG as m2
B31: GLS3000 S52D (antibody, name in Kabat numbering, V domains shown)
VH: B1 VH
VL: B1 VL with D26S, S57D
notes: one-arm IgG as m2
B32: GLS3000 S56H (antibody, name in Kabat numbering, V domains shown)
VH: B1 VH
VL: B1 VL with D26S, S61H
notes: one-arm IgG as m2
B33: GLS3000 S27aE (antibody, name in Kabat numbering, V domains shown)
VH: B1 VH
VL: B1 VL with D26S, S28E
notes: one-arm IgG as m2
B34: GLS3000 S27eH (antibody, name in Kabat numbering, V domains shown)
VH: B1 VH
VL: B1 VL with D26S, S32H
notes: one-arm IgG as m2
B35: GLS3000 S27eI (antibody, name in Kabat numbering, V domains shown)
VH: B1 VH
VL: B1 VL with D26S, S32I
notes: one-arm IgG as m2
B36: GLS3000 S56D (antibody, name in Kabat numbering, V domains shown)
VH: B1 VH
VL: B1 VL with D26S, S61D
notes: one-arm IgG as m2
B37: GLS3000 S27aP (antibody, name in Kabat numbering, V domains shown)
VH: B1 VH
VL: B1 VL with D26S, S28P
notes: one-arm IgG as m2
B38: GLS3000 S56F (antibody, name in Kabat numbering, V domains shown)
VH: B1 VH
VL: B1 VL with D26S, S61F
notes: one-arm IgG as m2
B39: GLS3000 S27aY (antibody, name in Kabat numbering, V domains shown)
VH: B1 VH
VL: B1 VL with D26S, S28Y
notes: one-arm IgG as m2
B40: GLS3000 S52P (antibody, name in Kabat numbering, V domains shown)
VH: B1 VH
VL: B1 VL with D26S, S57P
notes: one-arm IgG as m2
B41: GLS3000 S56M (antibody, name in Kabat numbering, V domains shown)
VH: B1 VH
VL: B1 VL with D26S, S61M
notes: one-arm IgG as m2
B42: GLS3000 S56A (antibody, name in Kabat numbering, V domains shown)
VH: B1 VH
VL: B1 VL with D26S, S61A
notes: one-arm IgG as m2
B43: GLS3000 S27eD (antibody, name in Kabat numbering, V domains shown)
VH: B1 VH
VL: B1 VL with D26S, S32D
notes: one-arm IgG as m2

What follows are binders tested against T1, CD3 epsilon homodimer protein (UniProt P07766 23-126) (assay: SPR Biacore T200, CD3e homodimer on chip, vs unaltered GLS3000 antibody).
T1 construct: also called CD3 (CD3 epsilon)
T1 sequence (P07766 23-126): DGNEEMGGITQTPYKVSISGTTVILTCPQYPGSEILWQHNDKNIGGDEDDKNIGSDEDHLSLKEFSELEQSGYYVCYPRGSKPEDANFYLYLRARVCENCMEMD

Binder | ratio of amounts bound (Z=Y/X)
B1 | 0.86
B2 | 1
B3 | 1.32
B4 | 0.99
B5 | 1.55
B6 | 1.12
B7 | 1.05
B8 | 0.79
B9 | 0.74
B10 | 0.71
B11 | 1.23
B12 | 1.1
B13 | 0.76
B14 | 1.1
B15 | 1.16
B16 | 1.03
B17 | 1.17
B18 | 0.93
B19 | 0.97
B20 | 1.58
B21 | 1.46
B22 | 0.92

Binder | ratio of amounts bound (Z=Y/X)
B23 | 1.26
B24 | 1.03
B25 | 1.02
B26 | 1.04
B27 | 1.2
B28 | 1.08
B29 | 0.78
B30 | 1.59
B31 | 0.63
B32 | 1.05
B33 | 0.81
B34 | 1.23
B35 | 1.07
B36 | 0.77
B37 | 0.99
B38 | 1.32
B39 | 1.1
B40 | 0.33
B41 | 1.05
B42 | 1.16
B43 | 0.69
